Assay results: patent publication CN111333730A (NANJING RONGJIEKANG BIOTECHNOLOGY CO LTD, dated 2020)

Target: T1, 人源EpCAM重组胞外结构域蛋白 (human, UniProt P16422 24-265)
T1 construct: range 24-265; Made in-house in 293F cells from pcDNA3.4; coated on ELISA plates; also called EpCAM重组蛋白; 人源重组EpCAM
T1 sequence: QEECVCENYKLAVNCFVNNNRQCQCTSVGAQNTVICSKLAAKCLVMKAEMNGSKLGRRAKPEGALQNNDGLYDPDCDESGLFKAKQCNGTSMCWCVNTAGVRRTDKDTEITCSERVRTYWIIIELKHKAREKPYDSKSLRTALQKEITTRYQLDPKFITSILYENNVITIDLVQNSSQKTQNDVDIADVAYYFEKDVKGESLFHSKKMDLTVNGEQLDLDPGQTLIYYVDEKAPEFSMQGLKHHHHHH
Test: ELISA, coated human recombinant EpCAM, anti-HA-HRP detection

B1: 单域抗体 4C9 (VHH)
VHH: ESGGGSVQAGGSLRLSCAASEYTWSTTCMGWFRQAPGKEREGVAALYTRRGSTYYADSVKGRFTISRDNAENTVYLQMNSLKPEDTAMYYCASGPSTDFSCDYRRSNGYNYWGQGTQVTVSS
With B1 as the binder, how does the EC50 read?
Its EC50 is 1.96 nM.
